Biological target: SARS-CoV-2 nsp12 (RdRp), wild type;SARS-CoV-2 nsp7;SARS-CoV-2 nsp8 (SARS-CoV-2;SARS-CoV-2;SARS-CoV-2, UniProt P0DTD1;P0DTD1;P0DTD1 4393-5324;3860-3942;3943-4140, ||)
Experiment: EMSA (native gel); no NTP
Conditions: protein: recombinant;recombinant;recombinant; tags: C-terminal His10 (TEV-cleaved protein A);GST-3C construct (E. coli); 9.4 kDa on gel;GST-3C construct (E. coli); 22 kDa on gel; copies: 1;1;2; label: Cy3 at template 5' end; Cy5 internal at primer position 12

B1: Extension Template P1 / Extension Primer P12 short (overhang RNA) (structured_RNA)
RNA 1: AAAAAAAAUUUUUUUUUUUUUUUAAUUCUUAAUCUCACAUAGC
RNA 2: GCUAUGUGAGAUUAAGAAUU
B1: binds.
